Experiments:
Full-length Aβ42 = test: cell-based or functional assay
Full-length Aβ40 = test: cell-based or functional assay

| Binder | t50 of ThT fibril growth of Aβ42 monomer with p3_(42) fibril seeds (10% w/w), as a percentage relative to self-seeding (Full-length Aβ42) | t50 of ThT fibril growth of Aβ40 monomer with p3_(40) fibril seeds (10% w/w), as a percentage relative to self-seeding (Full-length Aβ40) |
| --- | --- | --- |
| LVFFAEDVGSNKGAIIGLMVGGVVIA (numbers count on: the Aβ peptide; Used as SEC-purified monomer, as lag-phase oligomer preparation and as fibril seeds; source: synthetic peptide, bought: EZBiolab Inc; solubilized at pH 10, monomer isolated by SEC) [p3_(42) Peptide Aβ_(17-42)] | > 70 % relative to self-seeding t50 | – |
| LVFFAEDVGSNKGAIIGLMVGGVV (numbers count on: the Aβ peptide; Used as SEC-purified monomer, as lag-phase oligomer preparation and as fibril seeds; source: synthetic peptide, bought: EZBiolab Inc; solubilized at pH 10, monomer isolated by SEC) [p3_(40) Peptide Aβ_(17-40)] | – | 70 % relative to self-seeding t50 |

— article PMC11868391, “The p3 peptides (Aβ_(17-40/42)) rapidly form amyloid fibrils that cross-seed with full-length Aβ” (Nature Communications, 2025)
